Measured values from US10801046B2, “Methods and materials for biosynthesizing multifunctional, multivariate molecules via carbon chain modification” (INVISTA NORTH AMERICA S.A.R.L., priority 2016, dated 2020).

Columns and labels:
Assay type in all cases: biochemical
[1] = Aminotransferase activity, forward direction (7-oxoheptanoate to 7-aminoheptanoate), pyruvate formation by RP-HPLC; conditions: cell free extract, 10 mM substrate, 10 mM L-alanine, 25° C., 4 h, against empty vector control, FIG. 49
Procedure: (§1) A sequence encoding an N-terminal His-tag was added to the genes from Chromobacterium violaceum, Pseudomonas syringae, Rhodobacter sphaeroides, and Vibrio Fluvialis encoding the aminotransferases of SEQ ID NOs: 116 (GenBank Accession No. AAQ59697.1), 126 (GenBank Accession No. AAY39893.1), 127 (GenBank Accession No. ABA81135.1), and 128 (GenBank Accession No. AEA39183.1), respectively such that N-terminal HIS tagged aminotransferases could be produced. Each of the resulting modified genes was cloned into a pET21a expression vector under control of the T7 promoter and each expression vector was transformed into a BL21 [DE3] E. coli host. The resulting recombinant E. coli strains were cultivated at 37° C. in a 250 mL shake flask culture containing 50 mL LB media and antibiotic selection pressure, with shaking at 230 rpm. Each culture was induced overnight at 16° C. using 1 mM IPTG.
The pellet from each induced shake flask culture was harvested via centrifugation. Each pellet was resuspended and lysed via sonication. […]
Enzyme activity in the forward direction (i.e., 7-oxoheptanoate to 7-aminoheptanoate) was confirmed for the aminotransferases of SEQ ID NO: 126 (GenBank Accession No. AAY39893.1), SEQ ID NO: 127 (GenBank Accession No. ABA81135.1), and SEQ ID NO: 128 (GenBank Accession No. AEA39183.1). […] The formation of pyruvate was quantified via RP-HPLC.

[2] = Aminotransferase activity, reverse direction (7-aminoheptanoate to 7-oxoheptanoate), L-alanine formation by RP-HPLC; conditions: cell free extract, 10 mM substrate, 25° C., 4 h, against empty vector control, FIG. 48
Procedure: as §1
(§2) The pellet from each induced shake flask culture was harvested via centrifugation. Each pellet was resuspended and lysed via sonication. The cell debris was separated from the supernatant via centrifugation and the cell free extract was used immediately in enzyme activity assays.
Enzyme activity assays in the reverse direction (i.e., 7-aminoheptanoate to 7-oxoheptanoate) were performed in a buffer composed of a final concentration of 50 mM HEPES buffer (pH=7.5), 10 mM 7-aminoheptanoate, 10 mM pyruvate and 100 μM pyridoxyl 5′ phosphate. Each enzyme activity assay reaction was initiated by adding cell free extract of the aminotransferase gene product or the empty vector control to the assay buffer containing the 7-aminoheptanoate and incubated at 25° C. for 4 h, with shaking at 250 rpm. The formation of L-alanine from pyruvate was quantified via RP-HPLC.

[3] = Aminotransferase activity, heptane-1,7-diamine to 7-aminoheptanal, L-alanine formation by RP-HPLC; conditions: cell free extract, 10 mM substrate, 25° C., 4 h, against empty vector control, FIG. 50
Outline: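 N-terminal His-tagged aminotransferases expressed in E. coli BL21[DE3]; cell-free extracts used directly, with empty-vector control. Reaction: 50 mM HEPES pH 7.5, 10 mM heptane-1,7-diamine, 10 mM pyruvate, 100 μM PLP, 25° C for 4 h; L-alanine formed quantified by RP-HPLC.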

[4] = Aminotransferase activity, 7-aminoheptanol to 7-oxoheptanol, L-alanine formation by RP-HPLC; conditions: cell free extract, 10 mM substrate, 25° C., 4 h, against empty vector control, FIG. 52
Procedure: A nucleotide sequence encoding an N-terminal His-tag was added to the Chromobacterium violaceum, Pseudomonas syringae and Rhodobacter sphaeroides genes encoding the aminotransferases of SEQ ID NOs: 116 (GenBank Accession No. AAQ59697.1), 126 (GenBank Accession No. AAY39893.1), and 127 (GenBank Accession No. ABA81135.1), respectively such that N-terminal HIS tagged aminotransferases could be produced. The modified genes were cloned into a pET21a expression vector under the T7 promoter. Each expression vector was transformed into a BL21[DE3] E. coli host. Each resulting recombinant E. coli strain were cultivated at 37° C. in a 250 mL shake flask culture containing 50 mL LB media and antibiotic selection pressure, with shaking at 230 rpm. Each culture was induced overnight at 16° C. using 1 mM IPTG.
as §2
Enzyme activity assays in the reverse direction (i.e., 7-aminoheptanol to 7-oxoheptanol) were performed in a buffer composed of a final concentration of 50 mM HEPES buffer (pH=7.5), 10 mM 7-aminoheptanol, 10 mM pyruvate, and 100 μM pyridoxyl 5′ phosphate. […] The formation of L-alanine was quantified via RP-HPLC.

[5] = Aminotransferase activity, N7-acetyl-1,7-diaminoheptane to N7-acetyl-7-aminoheptanal, L-alanine formation by RP-HPLC; conditions: cell free extract, 10 mM substrate, 25° C., 4 h, against empty vector control, FIG. 51
Outline: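 Cell-free extracts of N-terminal His-tagged aminotransferases were incubated with 10 mM N7-acetyl-1,7-diaminoheptane, 10 mM pyruvate and 100 μM pyridoxal 5′-phosphate in 50 mM HEPES pH 7.5 for 4 h at 25 °C with shaking, alongside an empty-vector control. L-Alanine formed was quantified by RP-HPLC.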

[6] = Carboxylate reductase activity, N7-acetyl-7-aminoheptanoate to N7-acetyl-7-aminoheptanal, NADPH consumption at 340 nm; conditions: enhanced by gene product of sfp, 2 mM substrate, 20 min, against empty vector control, FIG. 45
Procedure: The activity of each of the N-terminal His-tagged carboxylate reductases of SEQ ID NOs: 29 (GenBank Accession No. ABK71854.1), 37 (Genbank Accession No. EIV11143.1), and 38 (GenBank Accession No. ADG98140.1) (see Examples 4) for converting N7-acetyl-7-aminoheptanoate to N7-acetyl-7-aminoheptanal was assayed in triplicate in a buffer composed of a final concentration of 50 mM HEPES buffer (pH=7.5), 2 mM N7-acetyl-7-aminoheptanoate, 10 mM MgCl2, 1 mM ATP, and 1 mM NADPH. The assays were initiated by adding purified carboxylate reductase and phosphopantetheine transferase or the empty vector control to the assay buffer containing the N7-acetyl-7-aminoheptanoate then incubated at room temperature for 20 min. The consumption of NADPH was monitored by absorbance at 340 nm.

[7] = Carboxylate reductase activity, 7-hydroxyheptanoate to 7-hydroxyheptanal, NADPH consumption at 340 nm; conditions: enhanced by gene product of sfp, 20 min, against empty vector control, FIG. 44
[8] = Carboxylate reductase activity, heptanedioate to 7-oxoheptanoate, NADPH consumption at 340 nm; conditions: enhanced by gene product of sfp, 2 mM substrate, 20 min, against empty vector control, FIG. 43
Procedure: A sequence encoding a HIS-tag was added to the genes from Segniliparus rugosus and Segniliparus rotundus that encode the carboxylate reductases of SEQ ID NOs: 31 (GenBank Accession No. EFV11917.1) and 38 (GenBank Accession No. ADG98140.1), respectively, such that N-terminal HIS tagged carboxylate reductases could be produced. Each of the modified genes was cloned into a pET Duet expression vector along with a sfp gene encoding a HIS-tagged phosphopantetheine transferase from Bacillus subtilis, both under the T7 promoter. Each expression vector was transformed into a BL21[DE3] E. coli host and the resulting recombinant E. coli strains were cultivated at 37° C. in a 250 mL shake flask culture containing 50 mL LB media and antibiotic selection pressure, with shaking at 230 rpm. Each culture was induced overnight at 37° C. using an auto-induction media.
The pellet from each induced shake flask culture was harvested via centrifugation. Each pellet was resuspended and lysed via sonication, and the cell debris was separated from the supernatant via centrifugation. […]
Enzyme activity assays (i.e., from heptanedioate to 7-oxoheptanoate) were performed in triplicate in a buffer composed of a final concentration of 50 mM HEPES buffer (pH=7.5), 2 mM heptanedioate, 10 mM MgCl2, 1 mM ATP, and 1 mM NADPH. […] The consumption of NADPH was monitored by absorbance at 340 nm.

[9] = Carboxylate reductase activity, 7-oxoheptanoate to heptanedial, NADPH consumption at 340 nm; conditions: enhanced by gene product of sfp, 2 mM substrate, 20 min, against empty vector control, FIG. 46
Procedure: The N-terminal His-tagged carboxylate reductase of SEQ ID NO: 38 (GenBank Accession No. ADG98140.1) (see Example 4) was assayed using 7-oxoheptanoate as substrate. The enzyme activity assay was performed in triplicate in a buffer composed of a final concentration of 50 mM HEPES buffer (pH=7.5), 2 mM 7-oxoheptanoate, 10 mM MgCl2, 1 mM ATP and 1 mM NADPH. The enzyme activity assay reaction was initiated by adding purified carboxylate reductase and phosphopantetheine transferase or the empty vector control to the assay buffer containing the 7-oxoheptanoate and then incubated at room temperature for 20 min. The consumption of NADPH was monitored by absorbance at 340 nm.

acceptance of 7-oxoheptanoate as substrate, forming 7-aminoheptanoate [1]	acceptance of 7-aminoheptanoate as substrate [2]	acceptance of 7-aminoheptanol as substrate, forming 7-oxoheptanol [4]	acceptance of heptanedioate as substrate, forming 7-oxoheptanoate [8]	acceptance of 7-oxoheptanoate as substrate, forming heptanedial [9]	Molecule	acceptance of heptane-1,7-diamine as substrate, forming 7-aminoheptanal [3]	acceptance of N7-acetyl-1,7-diaminoheptane as substrate, forming N7-acetyl-7-aminoheptanal [5]	acceptance of N7-acetyl-7-aminoheptanoate as substrate, forming N7-acetyl-7-aminoheptanal [6]	acceptance of 7-hydroxyheptanoate as substrate, forming 7-hydroxyheptanal [7]
accepted 7-oxoheptanoate as a substrate	accepted 7-aminoheptanote as substrate	accepted 7-aminoheptanol as a substrate			SEQ ID NO: 126: Pseudomonas syringae aminotransferase (protein, Pseudomonas syringae pv. syringae (strain B728a), Pseudomonas syringae aminotransferase) MSANNPQTLEWQALSSEHHLAPFSDYKQLKEKGPRIITRAEGVYLWDSEGNKILDGMSGLWCVAIGYGREELADAASKQMRELPYYNLFFQTAHPPVLELAKAISDIAPEGMNHVFFTGSGSEGNDTMLRMVRHYWALKGQPNKKTIISRVNGYHGSTVAGASLGGMTYMHEQGDLPIPGVVHIPQPYWFGEGGDMTPDEFGIWAAEQLEKKILELGVENVGAFIAEPIQGAGGVIVPPDSYWPKIKEILSRYDILFAADEVICGFGRTSEWFGSDFYGLRPDMMTIAKGLTSGYVPMGGLIVRDEIVAVLNEGGDFNHGFTYSGHPVAAAVALENIRILREEKIVERVRSETAPYLQKRLRELSDHPLVGEVRGVGLLGAIELVKDKTTRERYTDKGAGMICRTFCFDNGLIMRAVGDTMIIAPPLVISFAQIDELVEKARTCLDLTLAVLQG	accepted heptane-1,7-diamine as substrate	accepted N7-acetyl-1,7-diaminoheptane as a substrate		
			accepted heptanedioate as substrate	accepted 7-oxoheptanoate as substrate	SEQ ID NO: 38: Segniliparus rotundus carboxylate reductase (protein, listed as Segniliparus rotundus, Segniliparus rotundus (strain ATCC BAA-972 / CDC 1076 / CIP 108378 / DSM 44985 / JCM 13578), Segniliparus rotundus carboxylate reductase) MTQSHTQGPQASAAHSRLARRAAELLATDPQAAATLPDPEVVRQATRPGLRLAERVDAILSGYADRPALGQRSFQTVKDPITGRSSVELLPTFDTITYRELRERATAIASDLAHHPQAPAKPGDFLASIGFISVDYVAIDIAGVFAGLTAVPLQTGATLATLTAITAETAPTLFAASIEHLPTAVDAVLATPSVRRLLVFDYRAGSDEDREAVEAAKRKIADAGSSVLVDVLDEVIARGKSAPKAPLPPATDAGDDSLSLLIYTSGSTGTPKGAMYPERNVAHFWGGVWAAAFDEDAAPPVPAINITFLPLSHVASRLSLMPTLARGGLMHFVAKSDLSTLFEDLKLARPTNLFLVPRVVEMLYQHYQSELDRRGVQDGTREAEAVKDDLRTGLLGGRILTAGFGSAPLSAELAGFIESLLQIHLVDGYGSTEAGPVWRDGYLVKPPVTDYKLIDVPELGYFSTDSPHPRGELAIKTQTILPGYYKRPETTAEVFDEDGFYLTGDVVAQIGPEQFAYVDRRKNVLKLSQGEFVTLAKLEAAYSSSPLVRQLFVYGSSERSYLLAVIVPTPDALKKFGVGEAAKAALGESLQKIARDEGLQSYEVPRDFIIETDPFTVENGLLSDARKSLRPKLKEHYGERLEAMYKELADGQANELRDIRRGVQQRPTLETVRRAAAAMLGASAAEIKPDAHFTDLGGDSLSALTFSNFLHDLFEVDVPVGVIVSAANTLGSVAEHIDAQLAGGRARPTFATVHGKGSTTIKASDLTLDKFIDEQTLEAAKHLPKPADPPRTVLLTGANGWLGRFLALEWLERLAPAGGKLITIVRGKDAAQAKARLDAAYESGDPKLAGHYQDLAATTLEVLAGDFSEPRLGLDEATWNRLADEVDFISHPGALVNHVLPYNQLFGPNVAGVAEIIKLAITTRIKPVTYLSTVAVAAGVEPSALDEDGDIRTVSAERSVDEGYANGYGNSKWGGEVLLREAHDRTGLPVRVFRSDMILAHQKYTGQVNATDQFTRLVQSLLATGLAPKSFYELDAQGNRQRAHYDGIPVDFTAESITTLGGDGLEGYRSYNVFNPHRDGVGLDEFVDWLIEAGHPITRIDDYDQWLSRFETSLRGLPESKRQASVLPLLHAFARPGPAVDGSPFRNTVFRTDVQKAKIGAEHDIPHLGKALVLKYADDIKQLGLL			accepted N7-acetyl-7-aminoheptanoate as substrate	accepted 7-hydroxyheptanoate as substrate
